Measurements reported in patent EP4631974A1.
Like-named read-outs stand apart in the source and are kept apart here.

Key:
[1] = molecular target: RSV A2 pre-F protein (respiratory syncytial virus (RSV) A2) (UniProt P03420); experiment: BLI (Octet R8), RSV A2 pre-F captured on HIS1K sensor, antibody in solution
[2] = molecular target: RSV A2 pre-F protein (respiratory syncytial virus (RSV) A2) (UniProt P03420); experiment: ELISA, plate-coated RSV A2 pre-F, anti-human IgG Fc-HRP detection
[3] = molecular target: RSV A2 pre-F protein (respiratory syncytial virus (RSV) A2) (UniProt P03420); experiment: BLI (Octet R8), RSV A2 pre-F captured on HIS1K sensor, antibody in solution; remark: listed apart in the source
[4] = molecular target: RSV A2 pre-F protein (respiratory syncytial virus (RSV) A2) (UniProt P03420); experiment: ELISA, plate-coated RSV A2 pre-F, anti-human IgG Fc-HRP detection (2-fold dilutions from 1 ug/mL)

**Q.** What does the source list for MEDI8897 (antibody)?
**A.** Kd [1]: 0.122 nM; EC50 [2]: 0.0313 µg/mL; Kd [3]: 0.379 nM; EC50 [4]: 0.0146 µg/mL
